From patent US20260151389A1, “Use of Tetramethylpyrazine Nitrone Derivatives In The Treatment of Ischemic Stroke” (GUANGZHOU MAGPIE PHARMACEUTICALS CO., L.T.D., priority 2021, published 2026)

Test system: patients with acute ischemic stroke
Experiment: multicenter, randomized, double-blind, parallel clinical trial in acute ischemic stroke
Format: in vivo, human
Conditions: thrombolytic group
Text: The present invention adopts a multicenter, randomized, double-blind, parallel trial clinical research design. The patients with acute ischemic stroke included in the clinical trial-center as subjects (all signed informed consent forms) were divided into non-thrombolytic group and thrombolytic group. The non-thrombolytic group consists of the saline group and the TBN group. The thrombolytic group consists of the t-PA group and the combination group of TBN+t-PA.
Subjects of the tests: Patients diagnosed with acute ischemic stroke were selected by clinical trial centers based on the diagnostic criteria of “Chinese Guidelines for the Diagnosis and Treatment of Acute Ischemic Stroke (2018)”.
Administration method: TBN (1400 mg) is dissolved in a sodium chloride injection bag (specification: 100 mL) and administered intravenously for 30 minutes. Dose of t-PA: 0.9 mg/Kg/dose; usage: added to physiological saline, 10% of the dose is administered via injected intravenous injection immediately within 1-2 minutes, and the remaining 90% is administered via intravenous drop infusion within 60 minutes. t-PA is administered only once on the first day of acute ischemic stroke. The medication schedule of TBN: D1-D7 administered twice a day, with an interval of 12 hours, for 7 consecutive days.

B1: t-PA: tissue type plasminogen activator ateplase (t-PA), thrombolytic drug (protein, UniProt P00750 36-562, looked up)
Tissue-type plasminogen …: SYQVICRDEKTQMIYQQHQSWLRPVLRSNRVEYCWCNSGRAQCHSVPVKSCSEPRCFNGGTCQQALYFSDFVCQCPEGFAGKCCEIDTRATCYEDQGISYRGTWSTAESGAECTNWNSSALAQKPYSGRRPDAIRLGLGNHNYCRNPDRDSKPWCYVFKAGKYSSEFCSTPACSEGNSDCYFGNGSAYRGTHSLTESGASCLPWNSMILIGKVYTAQNPSAQALGLGKHNYCRNPDGDAKPWCHVLKNRRLTWEYCDVPSCSTCGLRQYSQPQFRIKGGLFADIASHPWQAAIFAKHRRSPGERFLCGGILISSCWILSAAHCFQERFPPHHLTVILGRTYRVVPGEEEQKFEVEKYIVHKEFDDDTYDNDIALLQLKSDSSRCAQESSVVRTVCLPPADLQLPDWTECELSGYGKHEALSPFYSERLKEAHVRLYPSSRCTSQHLLNRTVTDNMLCAGDTRSGGPQANLHDACQGDSGGPLVCLNDGRMTLVGIISWGLGCGQKDVPGVYTKVTNYLDWIRDNMRP
- efficacy after 90 days compared with after 30 days of treatment: no significant difference in efficacy
- Lsmeans mRS (90th day): 1.61
